Patent US20050176073A1, “Cell proliferation associated with CCX CKR expression” (ChemoCentryx, Inc., priority 2004, published 2005)

T1: CCX CKR (Homo sapiens, UniProt Q9NPB9)
T1 sequence (Q9NPB9 1-350): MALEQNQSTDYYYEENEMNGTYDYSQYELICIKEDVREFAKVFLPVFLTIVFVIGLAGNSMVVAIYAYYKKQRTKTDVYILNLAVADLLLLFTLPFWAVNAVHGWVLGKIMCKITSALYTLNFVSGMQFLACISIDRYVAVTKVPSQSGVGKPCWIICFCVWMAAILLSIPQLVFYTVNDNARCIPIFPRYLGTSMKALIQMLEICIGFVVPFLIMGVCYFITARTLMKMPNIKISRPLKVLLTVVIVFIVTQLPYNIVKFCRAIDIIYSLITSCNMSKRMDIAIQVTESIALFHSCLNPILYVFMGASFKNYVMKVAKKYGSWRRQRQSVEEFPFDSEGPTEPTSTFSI

B1: SLC: chemokine, CCX CKR ligand, also referred to as 6-Ckine (protein, UniProt O00585 24-134, looked up)
C-C motif chemokine 21: SDGGAQDCCLKYSQRKIPAKVVRSYRKQEPSLGCSIPAILFLPRKRSQAELCADPKELWVQQLMQHLDKTPSPQKPAQGCRKDRGASKTGKKGKGSKGCKRTERSQTPKGP
B2: TECK: chemokine, CCX CKR ligand (protein, UniProt O15444 24-150, looked up)
C-C motif chemokine 25: QGVFEDCCLAYHYPIGWAVLRRAWTYRIQEVSGSCNLPAAIFYLPKRHRKVCGNPKSREVQRAMKLLDARNKVFAKLHHNTQTFQAGPHAVKKLSSGNSKLSSSKFSNPISSSKRNVSLLISANSGL

What was measured:
CCX CKR [1] = target: T1, CCX CKR; test: Small molecule modulators of CCX CKR function
Source text: Other compounds are based upon agonists and antagonists for CCX CKR, which have been identified and are shown below: […]

[2] = system: untransfected HEK293 cells; test: PowerBlot protein expression analysis, untransfected HEK293 cells; type: cell-based, human; settings: untransfected HEK293 cells contacted with ligand; FIG. 2
Method: (§1) Studies were also conducted to assess what effect CCX CKR activity had on protein expression. This was analyzed by determining protein levels for both unstransfected HEK293 cells, and HEK293 cells transfected with CCX CKR, grown both in the presence and absence of the ligands ELC, SLC or TECK. Protein levels were determined using the BD PowerBlot™ technology developed by Becton Dickinson, and available from BD Biosciences Pharmingen. In general, this analysis involves separating proteins in cellular lysates by polyacrylamide electrophoresis and then conducting a Western blot with over 1,000 monoclonal antibodies specific for certain proteins. Antibodies that bind to a protein band on the gel are visualized using a digital camera that detects chemiluminescence from the bound antibody. The amount of protein can be determined based upon the strength of the signal. Further details regarding the application of this technology are discussed by Lorenz, P., et al. Proteomics (2003) 3:991-1002; Malakhov, M. P., et al. (2003) J. Biol. Chem. .278:16608-13; and Yoo, G. H., et al. (2002) Clin Cancer Res. 8:3910-21.
(§2) FIG. 2 provides a chart that provides a comparison of the number of proteins that were increased and decreased under different sets of conditions.

CCX CKR [3] = target: T1, CCX CKR; settings: WO 01/27146; cited from earlier work
[4] = system: HEK293 cells transfected with CCX CKR; test: PowerBlot protein expression analysis, HEK293 cells transfected with CCX CKR; type: cell-based, human; settings: relative to cells simply transformed with CCX CKR; FIG. 2
Method: as §1, §2

[5] = system: HEK293 cells transfected with CCX CKR; test: Cell growth curves (hemacytometer counting) of HEK293 cells transfected with CCX CKR; type: cell-based, human; settings: ligand in growth medium, growth curves over 6 days; FIG. 4
Method: Another set of experiments were conducted to ascertain whether CCX CKR plays a role in cell growth. One experiment involved culturing (1) untransfected HEK293 cells (ATCC #CRL 1573) (control), (2) HEK 293 cells transfected with CCX CKR as a polyclonal mixture, and (3) three different clones of HEK293 stably transfected with CCX CKR, thus giving a total of […] different cell cultures. Each of these cultures were obtained by seeding 50,000 cells/well in triplicate. The three different clones (clones 9, 12 and 13) were obtained by a limited dilution of the polyclonal mixture of cells.
Cells were allowed to attach for 12 hours in growth medium (Dulbecco's minimal essential medium with 10% fetal bovine serum), then cultured in the absence of fetal bovine serum for 12 hours to synchronize the cell cycle. Growth medium was then added back to cells, and plates returned to the incubator. Each day for 6 days, cells were removed with trypsin and counted with a hemacytometer.
Another set of experiments were conducted using the same procedure just described to address two issues: (1) whether the autoactive response observed in the first set of experiments was simply a consequence of the transformation process, and (2) to determine what effect ligands had on the ability of CCX CKR to promote cellular growth. […]

Molecule	Modulation of CCX CKR function (agonist or antagonist) (CCX CKR [1])	Effect on protein expression levels [2]	Affinity of CCX CKR for chemokine (CCX CKR [3])	Change in protein expression on addition of ligand [4]	Effect on cell growth [5]
CCC(c1nc2ccccc2c(=O)n1C)N(Cc1ccco1)C(=O)Nc1cccc(C(F)(F)F)c1 (centres unmarked) [Compound III]	Compound III (agonist)	–	–	–	–
CC1CCCCN1CCCN(Cc1ccc(OCc2ccccc2)cc1)C(=O)NC12CC3CC(CC(C3)C1)C2 (centres unmarked) [Compound II]	Compound II (antagonist)	–	–	–	–
CC1CCCCN1CCCN(Cc1ccc(OCc2ccccc2)cc1)C(=O)Nc1ccc(Cl)c(Cl)c1 (centres unmarked) [Compound I]	Compound I (antagonist)	–	–	–	–
ELC: chemokine, CCX CKR ligand, also referred to as MIP-3β	–	relatively minor effect on protein expression levels	high affinity	only a modest change in protein expression	–
B1	–	–	high affinity	only a modest change in protein expression	–
B2	–	–	high affinity	only a modest change in protein expression	modest effect on cell growth activity, with perhaps even a slight decrease in cell growth
